Here are results for one substance from patent publication CN114028561A.

In this assay the target is 天然TSLP. As to the kind of experiment: cell-based or functional assay.

As for Tezepelumab (antibody), the IC50 of inhibition of natural TSLP-induced STAT5 phosphorylation in SW756-STAT5-Luciferase reporter cells amounted to 1.45 ng/mL.
